Results from patent US20220153832A1 (PIONYR IMMUNOTHERAPEUTICS, published 2022).
Values joined by “and” are separate entries in the source; they are usually repeats but may differ in a detail not shown here. Identical values can stand only once.

What was measured:
[1] = molecular target: T1, recombinant cynomolgus MARCO protein (cynomolgus, UniProt A0A2K5X0Z2 65-519); assay: Biacore (SPR), recombinant cyno MARCO
T1 construct: Construct not described; also called cyno MARCO; cynoMARCO
T1 sequence: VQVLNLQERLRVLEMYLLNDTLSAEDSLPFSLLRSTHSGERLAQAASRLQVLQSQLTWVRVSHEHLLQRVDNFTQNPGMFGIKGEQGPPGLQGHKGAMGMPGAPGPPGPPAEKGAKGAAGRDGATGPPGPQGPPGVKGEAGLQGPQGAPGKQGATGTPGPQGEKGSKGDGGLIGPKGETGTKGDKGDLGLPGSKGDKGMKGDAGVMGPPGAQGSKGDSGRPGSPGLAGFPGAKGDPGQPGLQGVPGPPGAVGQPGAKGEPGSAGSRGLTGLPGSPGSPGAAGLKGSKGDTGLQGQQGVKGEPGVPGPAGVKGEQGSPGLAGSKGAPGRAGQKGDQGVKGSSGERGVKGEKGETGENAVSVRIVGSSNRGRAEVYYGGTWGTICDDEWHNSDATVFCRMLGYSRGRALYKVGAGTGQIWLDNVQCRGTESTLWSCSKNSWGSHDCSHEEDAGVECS

[2] = molecular target: T2, N-terminally polyhistidine tagged human MARCO ECD (147-520), recombinant (human, UniProt Q9UEW3 147-520); assay: Biacore; sample stressed 40 C 2 week
T2 construct: also called PI-RG-3000; recombinant human MARCO; not shown: N-terminal polyhistidine tag
T2 sequence: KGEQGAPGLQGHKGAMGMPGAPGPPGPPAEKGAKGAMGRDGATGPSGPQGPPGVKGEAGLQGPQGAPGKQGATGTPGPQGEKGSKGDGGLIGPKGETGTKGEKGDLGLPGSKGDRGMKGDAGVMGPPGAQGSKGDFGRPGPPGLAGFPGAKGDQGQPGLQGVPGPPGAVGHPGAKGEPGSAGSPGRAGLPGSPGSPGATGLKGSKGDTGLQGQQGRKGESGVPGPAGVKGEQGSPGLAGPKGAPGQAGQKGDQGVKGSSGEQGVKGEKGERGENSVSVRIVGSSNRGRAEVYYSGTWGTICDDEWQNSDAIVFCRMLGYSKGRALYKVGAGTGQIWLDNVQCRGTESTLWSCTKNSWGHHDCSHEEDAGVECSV
Procedure: Binding of the stressed samples to recombinant human MARCO was assessed by Biacore.

[3] = molecular target: T2, N-terminally polyhistidine tagged human …; assay: label-free kinetics (ProbeLife Gator), mAb captured, human MARCO
Procedure: The kinetics assay used either anti-mouse Fc or anti-human Fc probes to capture the anti-MARCO antibodies onto the probe, and then a five-step kinetic protocol was used to measure the affinity of the antibodies to the antigen, including the following steps: baseline, loading, baseline, association, and dissociation. The kinetics buffer (K buffer) provided by ProbeLife was used to establish the baseline for 60 seconds, and then the anti-mFc or anti-hFc probes were loaded with 200 nM of the antibodies for 120s until the capture reached saturation, measurement of the baseline in K buffer was performed for another 60s, followed by the association step using 200 nM antigen (human MARCO, mouse MARCO or cyno MARCO), and the dissociation step performed in K buffer for 5-10 minutes. The assay was done at 37° C. to maximize antibody:antigen dissociation.
Kinetics and epitope binning analysis of the newly generated anti-human MARCO antibodies was performed as described in Example 3.

[4] = molecular target: T3, N-terminal his-tagged mouse MARCO protein, recombinant (mouse, UniProt Q60754 150-518); assay: Biacore
T3 construct: The entry holds the His tag, the CLD and the SRCR domain; also called mMARCO (RG3016); PI-RG-3016
T3 sequence: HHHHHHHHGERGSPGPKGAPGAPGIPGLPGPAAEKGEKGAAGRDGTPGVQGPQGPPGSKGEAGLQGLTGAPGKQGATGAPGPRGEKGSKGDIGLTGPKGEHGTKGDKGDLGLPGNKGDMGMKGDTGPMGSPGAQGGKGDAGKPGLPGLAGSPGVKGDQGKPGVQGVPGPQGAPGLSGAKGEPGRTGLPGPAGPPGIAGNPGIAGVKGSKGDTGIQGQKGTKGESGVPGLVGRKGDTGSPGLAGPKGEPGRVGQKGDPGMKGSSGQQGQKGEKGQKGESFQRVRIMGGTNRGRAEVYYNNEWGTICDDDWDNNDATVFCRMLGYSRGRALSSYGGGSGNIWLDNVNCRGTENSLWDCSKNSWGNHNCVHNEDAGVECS

[5] = molecular target: T2, N-terminally polyhistidine tagged human …; assay: KD (nM) Human; method not given
[6] = molecular target: T4, mouse MARCO (R&D biosystems), recombinant, coated in the LDL competition assay (mouse, UniProt Q60754 70-518, limits assumed); assay: LDL competition on coated mouse MARCO (MSD), competitor biotinylated hLDL
T4 sequence (looked up): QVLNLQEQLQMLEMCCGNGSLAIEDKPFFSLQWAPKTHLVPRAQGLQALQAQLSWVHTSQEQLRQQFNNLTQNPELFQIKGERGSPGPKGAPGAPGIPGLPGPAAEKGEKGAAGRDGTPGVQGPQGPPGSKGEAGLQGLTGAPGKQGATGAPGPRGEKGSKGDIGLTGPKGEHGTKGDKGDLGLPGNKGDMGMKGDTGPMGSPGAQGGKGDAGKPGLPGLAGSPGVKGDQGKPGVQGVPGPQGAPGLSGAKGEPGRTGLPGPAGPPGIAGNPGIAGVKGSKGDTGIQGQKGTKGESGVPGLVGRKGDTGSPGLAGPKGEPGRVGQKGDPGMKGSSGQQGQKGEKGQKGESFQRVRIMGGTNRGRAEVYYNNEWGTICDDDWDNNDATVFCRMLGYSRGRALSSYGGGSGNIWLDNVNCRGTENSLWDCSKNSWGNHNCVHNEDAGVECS
Procedure: A high-binding, 96-well MSD plate was coated with 4 μg/ml mouse MARCO or 4 μg/ml human MARCO (R&D biosystems). After the plate was blocked with PBST and 5% BSA for an hour, titrated anti-mouse or anti-human MARCO antibodies were added to the plate and incubated for 30 minutes. Biotinylated hLDL (860 pM or 2 μg/ml) were added to the antibody, and the antibody/LDL mixture was incubated for an hour to allow the mixture to reach binding equilibrium. The plates were washed and bound biotinylated LDL was detected with Sulfo-tagged streptavidin that generates an electrocheminlumenscent signal when read buffer is added and electricity is applied to the electrodes in the MSD plate. IC50's were calculated using a 4-parameter curve fit in GraphPad Prism software.

B1: PI-3015-AB (antibody, human IgG1, kappa)
heavy: not shown
light: DIQMTQSPSSLSASVGDRVTITCRASEGISNDLAWYQQKPGKAPKLLIYAASRLQSGVPSRFSGSGSGTDYTLTISSMQPEDFATYYCQQSYKYPLTFGQGTKLEIKRTVAAPSVFIFPPSDEQLKSGTASVVCLLNNFYPREAKVQWKVDNALQSGNSQESVTEQDSKDSTYSLSSTLTLSKADYEKHKVYACEVTHQGLSSPVTKSFNRGEC
In the case of B1, the Kd [1] is reported as 1650 pM and the Kd [2] is reported as 1200 pM.

B2: PI-HX-3031 (antibody)
heavy: QVQLKESGPGLVQPSQTLSLTCTVSGFSLTSYHVSWVRQPPGKGLEWMGAIWTGGSIAYNSLLKSRLSISRDTSKSQVFLKMNSLQTEDTATYYCARDLSDYYSSYTSFDYWGQGVMVTVSTAETTAPSVYPLAPGTALKSNSMVTLGCLVKGYFPEPVTVTWNSGALSSGVHTFPAVLQSGLYTLTSSVTVPSSTWSSQAVTCNVAHPASSTKVDKKIVPRECNPCGCTGSEVSSVFIFPPKTKDVLTITLTPKVTCVVVDISQNDPEVRFSWFIDDVEVHTAQTHAPEKQSNSTLRSVSELPIVHRDWLNGKTFKCKVNSGAFPAPIEKSISKPEGTPRGPQVYTMAPPKEEMTQSQVSITCMVKGFYPPDIYTEWKMNGQPQENYKNTPPTMDTDGSYFLYSKLNVKKETWQQGNTFTCSVLHEGLHNHHTEKSLSHSP
light: DIQMTQSPASLSTSLGETVSIECLASEGISNDLAWYQQKSGKSPQLLIYAASRLQDGVPSRFSGSGSGTRYSLKISGMQPEDEADYFCQQSYKYPLTFGSGTKLEIKRADAAPTVSIFPPSTEQLATGGASVVCLMNNFYPRDISVKWKIDGTERRDGVLDSVTDQDSKDSTYSMSSTLSLTKADYESHNLYTCEVVHKTSSSPVVKSFNRNEC
notes: Parental rat hybridoma, rat IgG2a
With B2 the koff [3] was 0.000798 s⁻¹ and the kon [3] was 443000 M⁻¹ s⁻¹.

B3: PI-HX-3043 (antibody, rat IgG2a)
heavy: QVNLLQSRAALVKPGASVKLSCKASGYTFTDYYLHWVKQSHAKSLEWIGYINPNNAYTSYNEKFKSKATLTVDKSTNTAYMELSRLTSADSATYYCARDTTDYYNLHFAYWGQGTLVTVSSAETTAPSVYPLAPGTALKSNSMVTLGCLVKGYFPEPVTVTWNSGALSSGVHTFPAVLQSGLYTLTSSVTVPSSTWSSQAVTCNVAHPASSTKVDKKIVPRECNPCGCTGSEVSSVFIFPPKTKDVLTITLTPKVTCVVVDISQNDPEVRFSWFIDDVEVHTAQTHAPEKQSNSTLRSVSELPIVHRDWLNGKTFKCKVNSGAFPAPIEKSISKPEGTPRGPQVYTMAPPKEEMTQSQVSITCMVKGFYPPDIYTEWKMNGQPQENYKNTPPTMDTDGSYFLYSKLNVKKETWQQGNTFTCSVLHEGLHNHHTEKSLSHSP
light: DIQMTQSPASLSASLGETVSIECLTSEGISNDLAWYQQKSGKSPQLLIYDASRLEDGVPSRFSGSGSGTRYSLKISGMQTEDEADYFCQQSYKYPLTFGSGTKLEIKRADAAPTVSIFPPSTEQLATGGASVVCLMNNFYPRDISVKWKIDGTERRDGVLDSVTDQDSKDSTYSMSSTLSLTKADYESHNLYTCEVVHKTSSSPVVKSFNRNEC
notes: as for B2
B3 was tested, and the koff [3] was 0.000849 s⁻¹ and the kon [3] was 233000 M⁻¹ s⁻¹.

B4: PI-HX-3061 (antibody, rat IgG2a)
heavy: EVQLVESGGGLVQPGSSLKLSCVASKFTFSNYGMNWIRQAPKKGLEWIALIYYNSNNKYYADSVKGRFTISRDNSKNTLYLEMNSLRSEDTAMYYCAKSLTGGSDYFDSWGQGVMVTVSSAETTAPSVYPLAPGTALKSNSMVTLGCLVKGYFPEPVTVTWNSGALSSGVHTFPAVLQSGLYTLTSSVTVPSSTWPSQTVTCNVAHPASSTKVDKKIVPRNCGGDCKPCICTGSEVSSVFIFPPKPKDVLTITLTPKVTCVVVDISQDDPEVHFSWFVDDVEVHTAQTRPPEEQFNSTFRSVSELPILHQDWLNGRTFRCKVTSAAFPSPIEKTISKPEGRTQVPHVYTMSPTKEEMTQNEVSITCMVKGFYPPDIYVEWQMNGQPQENYKNTPPTMDTDGSYFLYSKLNVKKEKWQQGNTFTCSVLHEGLHNHHTEKSLSHSP
light: DVQMTQSPSYLAASPGESVSISCKASKSIGTFLAWYQEKPEKTNKLLIYSGSTLQSGTPSRFSGSGSGTDFTLTIRNLEPEDFAVYYCQQHDEYPFTFGSGTKLEIKRADAAPTVSIFPPSTEQLATGGASVVCLMNNFYPRDISVKWKIDGTERRDGVLDSVTDQDSKDSTYSMSSTLSLTKADYESHNLYTCEVVHKTSSSPVVKSFNRNEC
notes: Parental rat hybridoma, rat IgG2a; cross reactive with human and mouse MARCO
In the case of B4, the Kd [4] is reported as less than 20 pM.

B5: PI-3010-AB (antibody, human IgG1, kappa)
heavy: not shown
light: DIQMTQSPASLSTSLGETVSIECLASEGISNDLAWYQQKSGKSPQLLIYAASRLQDGVPSRFSGSGSGTRYSLKISGMQPEDEADYFCQQSYKYPLTFGSGTKLEIKRTVAAPSVFIFPPSDEQLKSGTASVVCLLNNFYPREAKVQWKVDNALQSGNSQESVTEQDSKDSTYSLSSTLTLSKADYEKHKVYACEVTHQGLSSPVTKSFNRGEC
For B5, the Kd [5] was 430 pM and 640 pM.

B6: PI-HX-3021 (antibody, V domains shown)
VH: QVRLVQSGTALVRPGASVRMSCTASGYSFTDYWVSWVKQSHGQSLEWIGEIYPNSGTTNFNEKFEGKATLTVDKSTSTAYMELSRLTSEDSAIYYCTGEGTFDYWGQGVMVTVSS
VL: EIVLTQSPTTMAASPGEKVTITCRPSSSLSNMHWFQQKSGTSPKPWIYDTSKLASGVPDRFSGSGSGTSYSLTISSMEAEDAATYYCLQRSSYPPTFGAGTKLELK
notes: Rat IgG2a hybridoma antibody; Not the effector dead PI-3021; also called PI-3007 (name of the recombinant form)
B6 was tested, and the EC50 [6] was 250 pM.

B7: PI-HX-3016 (antibody, rat IgG1, V domains shown)
VH: EVQLVESGGGLVKPGASLKLSCVASGFTFSDDWMNWVRQTPGKAMEWIGDIKYDGSYTNYVPSLKNRLTISRDNAKNTLYLQMTNVRSEDTATYYCTSGGVFDYWGQGVMVTVSS
VL: EIVLSQSPTTMAASPGEKVTITCRASSSVSYMHWFQQKSGTSPKPWIYDTSKLASGVPDRFSGSGSGTSYSLTISSMEAEDAATYYCLQRSGYPPTFGAGTKLEVK
notes: Rat IgG1 hybridoma antibody
B7 was tested, and the EC50 [6] was 340 pM.
